From patent publication WO2021136808A1 (dated 2021)

Biological target: T1, human CTLA-4 (AA Ala37-Ser160) - Fc Tag fusion protein (AcroBiosystem, catalog no. CT4-H5255) (human, UniProt P16410 37-160)
T1 construct: range 37-160; Bought reagent, coated to the ELISA plate wells as capture reagent; also called human CTLA-4 - Fc Tag fusion protein; not shown: Fc tag
T1 sequence (looked up): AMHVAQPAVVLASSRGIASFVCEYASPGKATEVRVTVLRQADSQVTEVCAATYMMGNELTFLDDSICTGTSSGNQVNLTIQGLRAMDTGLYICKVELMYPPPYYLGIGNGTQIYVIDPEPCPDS
Assay: in-house sandwich ELISA, CTLA-4-Fc coated on plate, HHC MET in rat plasma

binding result: binds
B1: HHC MET (VHH)
chain: EVQLVESGGGLVQAGGSLRLSCAASGGTFSFYGMGWFRQAPGKEQEFVADIRTSAGRTYYADSVKGRFTISRDNAKNTVYLQMNSLKPEDTAVYYCAAEMSGISGWDYWGQGTQVTVSSGGGGSGGGSEVQLVESGGGLVQAGGSLRLSCAASGGTFSFYGMGWFRQAPGKEQEFVADIRTSAGRTYYADSVKGRFTISRDNAKNTVYLQMNSLKPEDTAVYYCAAEMSGISGWDYWGQGTQVTVSS
notes: Single polypeptide expressed in E. coli; In the ELISA it stood as free protein in rat plasma (calibration standards and samples); also called free HHC MET
